Assay [1] has as its target T1, human IL-11 (human, UniProt P20809 22-199).
T1 sequence: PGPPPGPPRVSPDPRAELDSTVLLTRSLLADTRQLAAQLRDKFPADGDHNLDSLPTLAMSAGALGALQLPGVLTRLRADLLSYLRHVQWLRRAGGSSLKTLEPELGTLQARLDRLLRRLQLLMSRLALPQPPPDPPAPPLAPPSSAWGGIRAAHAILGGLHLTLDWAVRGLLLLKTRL
The assay is described as follows: cell-based or functional assay.

In assay [2] the target is T2, murine IL-11 (mouse, UniProt P47873 22-199).
T2 sequence: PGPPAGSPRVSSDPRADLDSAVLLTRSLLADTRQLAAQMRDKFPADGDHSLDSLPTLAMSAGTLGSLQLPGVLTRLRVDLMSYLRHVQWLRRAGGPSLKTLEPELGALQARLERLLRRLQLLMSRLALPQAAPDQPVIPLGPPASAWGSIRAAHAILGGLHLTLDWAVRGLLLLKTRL
Kind of assay: cell-based or functional assay.

The target in assay [3] is T3, cynomolgus IL-11 (cynomolgus, UniProt P20808 22-199).
T3 sequence: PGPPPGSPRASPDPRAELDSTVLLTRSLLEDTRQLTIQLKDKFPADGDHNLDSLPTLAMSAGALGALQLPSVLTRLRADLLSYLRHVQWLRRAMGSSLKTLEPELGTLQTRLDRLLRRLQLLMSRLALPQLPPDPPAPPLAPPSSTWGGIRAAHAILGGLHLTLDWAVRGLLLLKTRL
The assay is described as follows: cell-based or functional assay.

Assay [4] addresses T4, rat IL-11 (rat, UniProt Q99MF5 22-199).
T4 sequence: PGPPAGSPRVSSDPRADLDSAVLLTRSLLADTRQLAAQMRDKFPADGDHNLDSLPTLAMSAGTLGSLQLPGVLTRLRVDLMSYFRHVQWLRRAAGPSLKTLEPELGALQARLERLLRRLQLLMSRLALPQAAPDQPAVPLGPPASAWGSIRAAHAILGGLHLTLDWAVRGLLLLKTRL
The assay is described as follows: cell-based or functional assay.

The target in assay [5] is T1, human IL-11. Kind of assay: SPR 37 C, antibody captured, IL-11 as analyte. The method, then: (§1) To assess the binding kinetics and affinity of anti-IL-11 antibodies as well as their species cross-reactivity profile, binding assays were conducted using surface plasmon resonance (SPR). Binding assays were performed on a Biacore T200 instrument or on a Biacore 8K+ instrument (Cytiva) at 37° C. using assay buffer HBS EP+, 300 mM NaCl, 1 mg/ml BSA, 0.05% NaN3. Antibodies were captured either via anti-human Fc IgGs (“Human antibody capture kit”, Order No. BR100839, Cytiva) or via anti-mouse Fc IgGs (“Mouse antibody capture kit, Order No. BR100383, Cytiva) covalently amine coupled to a Series S CM5 sensor chip (Cytiva) depending on the isotype. The amine coupling was carried out according to the manufacturer's instructions using 1-ethyl-3-(3-dimethylaminopropyl) carbodiimide hydrochloride (EDC), N-hydroxysuccinimide (NHS) and ethanolamine HCl, pH 8.5 (“Amine Coupling Kit” BR-1000-50, Cytiva.). Human, mouse, cynomolgus or rat IL-11 was used as analyte at several dilutions within the concentration range from 0.05-200 nM. For binding assays with only one concentration 200 nM IL-11 was used. The sensor surface was regenerated with glycine pH 1.7 after each antigen injection. Obtained sensorgrams were double referenced (subtraction of reference flow cell signal and buffer injection) and were fitted to a 1:1 Langmuir binding model to derive kinetic data using the Biacore T200 Evaluation software or the Biacore Insight software. If no value is reported, there was either no binding or very low binding and multiphasic binding behavior. Values below 1E-12 were considered to be below the dynamic range of the instrument and set to <1E-12.

In assay [6] the target is T2, murine IL-11. The assay is described as follows: SPR 37 C, antibody captured, IL-11 as analyte. The method, then:
as §1

The target of assay [7] is T3, cynomolgus IL-11. Kind of assay: SPR 37 C, antibody captured, IL-11 as analyte. The protocol:
as §1

In assay [8] the target is T4, rat IL-11. The assay is described as follows: SPR 37 C, antibody captured, IL-11 as analyte. The protocol:
as §1

For assay [9], the target named is T1, human IL-11. The assay is described as follows: Di-complex ELISA, competitor canine IL11RA-Fc on coated IL-11.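 For Efficacy (%): signal drop relative to signal at lowest antibody concentration.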 The protocol: (§2) The assay is performed using streptavidin coated microtiter plates (Greiner bio-one, #781997). In a first step, 10 nM biotinylated mouse IL-11 (Invigate, Germany, e.g., lot #C210819-09) or human IL-11 (Invigate, Germany, e.g., lot #C121021-19) is coated in 25 μl PBS on the plate at 4° C. overnight. Next day, the plate is washed three times with 50 μl PBST and then blocked with 50 μl SmartBlock (Candor, #113125) for one hour at room temperature (RT). After additional three washes with PBST, 25 μl of a mixture of the murine anti IL-11 antibody and recombinant canine IL11RA-Fc fusion protein (Sino Biological, #70078-D02H) in PBS-T, 10% Smartblock are added simultaneously to the plate and incubated for one hour at RT. […] After three additional washes with PBS-T, 25 μl anti-human-POD (Sigma, #A0170) in PBS-T, 10% Smartblock is added and incubated for 1 hour at RT. After a final three washes with PBS-T, 25 μl AmplexRed (Fisher Scientific, A12222), 1/1000 in PBS, 0,003% H₂O₂, is added as substrate and incubated for 15 min at RT in the dark. Then, the fluorescence is measured with a plate reader at 535/595 nm. Signals from dose responses were used to calculate IC50 values (GraphPad Prism). Efficacy was calculated as [(signal measured at lowest antibody concentration−signal measured at the highest antibody concentration)×100] divided by (signal measured at lowest antibody concentration−signal measured in the absence of IL11Ra).
(§3) IgG converted antibodies were subjected to the experimental assay procedure described in Example 18.

The target in assay [10] is T2, murine IL-11. The description is as above. The protocol:
as §2, §3

B1: TPP-29523 (antibody, mouse IgG1)
heavy: QVQLVESGGGVVQPGRSLRLSCAASGFTFSHYDMHWVRQAPGKGLEWVAVISYEGSVKFYADSVKGRFTISRDNSKNTLYLQMNSLRAEDTAVYYCARTPGFHFDYWGQGTLVTVSSAKTTPPSVYPLAPGSAAQTNSMVTLGCLVKGYFPEPVTVTWNSGSLSSGVHTFPAVLQSDLYTLSSSVTVPSSTWPSETVTCNVAHPASSTKVDKKIVPRDCGCKPCICTVPEVSSVFIFPPKPKDVLTITLTPKVTCVVVDISKDDPEVQFSWFVDDVEVHTAQTQPREEQFNSTFRSVSELPIMHQDWLNGKEFKCRVNSAAFPAPIEKTISKTKGRPKAPQVYTIPPPKEQMAKDKVSLTCMITDFFPEDITVEWQWNGQPAENYKNTQPIMDTDGSYFVYSKLNVQKSNWEAGNTFTCSVLHEGLHNHHTEKSLSHSPGK
light: QSVLTQPPSASGTPGQRVTISCSGSSSNIGSNYVNWYQQLPGTAPKLLIYYDDLRPSGVPDRFSGSKSGTSASLAISGLRSEDEADYYCSAWDDSLSGVVFGGGTKLTVLGQPKSSPSVTLFPPSSEELETNKATLVCTITDFYPGVVTVDWKVDGTPVTQGMETTQPSKQSNNKYMASSYLTLTARAWERHSSYSCQVTHEGHTVEKSLSRADCS
notes: mIgG1, Lambda
In general, Kd refers to the concentration at which binding is half-saturated. Low readings indicate higher affinity, high ones lower affinity. Regarding B1, the “RGA Efficacy (%)” value is 100% with human IL-11 [1], 101% with murine IL-11 [2], 97.2% with cynomolgus IL-11 [3] and 101% with rat IL-11 [4]. Also, the “RGA IC50” value came out at 1.6 nM with human IL-11 [1], 1.4 nM with murine IL-11 [2], 0.68 nM in the assay with cynomolgus IL-11 [3] and 1.4 nM with rat IL-11 [4]. The equilibrium dissociation constant (Kd) turned out to be 0.0026 nM with human IL-11 [5], 0.004 nM in the assay with murine IL-11 [6], 1.1 nM in the assay with cynomolgus IL-11 [7] and 0.02 nM with rat IL-11 [8]. The entries for the “Efficacy (%)” value with human IL-11 [9] and in the assay with murine IL-11 [10] were 2% and 4.8%, respectively.

B2: TPP-29519 (antibody, mouse IgG1)
heavy: QVQLVESGGGVVQPGRSLRLSCAASGFTFSHYDMHWVRQAPGKGLEWVAVISYHGSVKFYADSVKGRFTISRDNSKNTLYLQMNSLRAEDTAVYYCARTPGFHFDYWGQGTLVTVSSAKTTPPSVYPLAPGSAAQTNSMVTLGCLVKGYFPEPVTVTWNSGSLSSGVHTFPAVLQSDLYTLSSSVTVPSSTWPSETVTCNVAHPASSTKVDKKIVPRDCGCKPCICTVPEVSSVFIFPPKPKDVLTITLTPKVTCVVVDISKDDPEVQFSWFVDDVEVHTAQTQPREEQFNSTFRSVSELPIMHQDWLNGKEFKCRVNSAAFPAPIEKTISKTKGRPKAPQVYTIPPPKEQMAKDKVSLTCMITDFFPEDITVEWQWNGQPAENYKNTQPIMDTDGSYFVYSKLNVQKSNWEAGNTFTCSVLHEGLHNHHTEKSLSHSPGK
light: QSVLTQPPSASGTPGQRVTISCSGSSSNIGSNYVSWYQQLPGTAPKLLIYYDDLRPSGVPDRFSGSKSGTSASLAISGLRSEDEADYYCSAWDDSLSGVVFGGGTKLTVLGQPKSSPSVTLFPPSSEELETNKATLVCTITDFYPGVVTVDWKVDGTPVTQGMETTQPSKQSNNKYMASSYLTLTARAWERHSSYSCQVTHEGHTVEKSLSRADCS
notes: mIgG1, Lambda
As to B2, the “RGA Efficacy (%)” value turned out to be 100% in the assay with human IL-11 [1], 101% in the assay with murine IL-11 [2], 99.2% with cynomolgus IL-11 [3] and 99.7% with rat IL-11 [4]. Further, the “RGA IC50” value with human IL-11 [1] turned out to be 1.8 nM; with murine IL-11 [2], 1.2 nM; in the assay with cynomolgus IL-11 [3], 0.89 nM; in the assay with rat IL-11 [4], 1 nM. Also, the equilibrium dissociation constant (Kd) in the assay with human IL-11 [5] was found to be 0.01 nM; with murine IL-11 [6], 0.0035 nM; with cynomolgus IL-11 [7] it was 0.61 nM; with rat IL-11 [8], 0.023 nM. The “Efficacy (%)” value is 6.8% in the assay with human IL-11 [9] and 12.8% with murine IL-11 [10].

B3: TPP-29528 (antibody, mouse IgG1)
heavy: EVQLLESGGGLVQPGGSLRLSCAASGFTFSSYGMHWVRQAPGKGLEWVAVISYDGSYKYYADSVKGRFTISRDNSKNTLYLQMNSLRAEDTAVYYCAAGVPDYWGQGTLVTVSSAKTTPPSVYPLAPGSAAQTNSMVTLGCLVKGYFPEPVTVTWNSGSLSSGVHTFPAVLQSDLYTLSSSVTVPSSTWPSETVTCNVAHPASSTKVDKKIVPRDCGCKPCICTVPEVSSVFIFPPKPKDVLTITLTPKVTCVVVDISKDDPEVQFSWFVDDVEVHTAQTQPREEQFNSTFRSVSELPIMHQDWLNGKEFKCRVNSAAFPAPIEKTISKTKGRPKAPQVYTIPPPKEQMAKDKVSLTCMITDFFPEDITVEWQWNGQPAENYKNTQPIMDTDGSYFVYSKLNVQKSNWEAGNTFTCSVLHEGLHNHHTEKSLSHSPGK
light: QSVLTQPPSASGTPGQRVTISCSGSSSNIGSDYDVHWYQQLPGTAPKLLIYSNEERPSGVPDRFSGSKSGTSASLAISGLRSEDEADYYCSAWDSSLSGPVFGGGTKLTVLGQPKSSPSVTLFPPSSEELETNKATLVCTITDFYPGVVTVDWKVDGTPVTQGMETTQPSKQSNNKYMASSYLTLTARAWERHSSYSCQVTHEGHTVEKSLSRADCS
notes: mIgG1, Lambda
By IC50 is commonly meant the concentration that gives 50% inhibition. Read a low IC50 as inhibition by little substance. With B3, the “RGA Efficacy (%)” value worked out at 81.2% in the assay with human IL-11 [1], 96.9% with murine IL-11 [2], 87.8% with cynomolgus IL-11 [3] and 89.9% in the assay with rat IL-11 [4]. In addition, the “RGA IC50” value with murine IL-11 [2] worked out at 0.89 nM; in the assay with cynomolgus IL-11 [3], 0.44 nM; with rat IL-11 [4] it was 1.8 nM. For the same molecule, the dissociation constant Kd was 0.34 nM with human IL-11 [5], 0.23 nM in the assay with murine IL-11 [6], 0.2 nM in the assay with cynomolgus IL-11 [7] and 0.33 nM with rat IL-11 [8]. In addition, the “Efficacy (%)” value with human IL-11 [9] turned out to be 36.3%; in the assay with murine IL-11 [10], 43.4%. In the assay with murine IL-11 [10], this molecule displayed a half-maximal inhibitory concentration (IC50) of 2.6 nM.

The values above are taken from patent US20240317847A1 (Bayer, published 2024).
